Test results: publication PMC11925332, “Structural Insights and Reaction Profile of a New Unspecific Peroxygenase from Marasmius wettsteinii Produced in a Tandem-Yeast Expression System” (ACS Chemical Biology, 2024)

Tests used:
[1] = molecular target: Recombinant unspecific peroxygenase MweUPO-1 from Marasmius wettsteinii (Marasmius wettsteinii); assay: crystal structure; deglycosylated (Endo H) MweUPO-1, 11 mg/mL in 50 mM sodium citrate pH 5.6; sitting-drop vapor diffusion at 18 °C, 10-20% (v/v) PEG 4000, 0.2 M (NH4)2SO4; space group P43212, two molecules per asymmetric unit
purified protein [2] = substrate: COc1cccc(OC)c1O; assay: purified protein; type: biochemical, Marasmius wettsteinii; conditions: 2 mM H2O2; 100 mM potassium phosphate pH 5.0 per table footnote (methods section says phosphate pH 6.0)
purified protein [3] = substrate: COc1ccc(CO)cc1OC; assay: purified protein; conditions: 2 mM H2O2; 100 mM potassium phosphate pH 5.0 per table footnote (methods section says phosphate pH 7.0)
purified protein [4] = substrate: CCn1c(=NN=c2sc3cc(S(=O)(=O)O)ccc3n2CC)sc2cc(S(=O)(=O)O)ccc21; assay: purified protein; conditions: 2 mM H2O2, 100 mM Britton-Robinson buffer pH 4.0 per table footnote (methods section says phosphate/citrate pH 4.0)

stoichiometry N [1] | Molecule | Km (purified protein [2]) [µM] | kcat (purified protein [2]) [s⁻¹] | kcat/Km (purified protein [2]) [M⁻¹ s⁻¹] | Km (purified protein [3]) [µM] | kcat (purified protein [3]) [s⁻¹] | kcat/Km (purified protein [3]) [M⁻¹ s⁻¹] | Km (purified protein [4]) [µM] | kcat (purified protein [4]) [s⁻¹] | kcat/Km (purified protein [4]) [M⁻¹ s⁻¹]
2 | Recombinant unspecific peroxygenase MweUPO-1 from Marasmius wettsteinii (enzyme) |  |  |  |  |  |  |  |  | 
 | MweUPO-1 (Marasmius wettsteinii) (protein) SAHPWKAPGPNDSRGPCPGLNTLANHGFLPRNGRNISVPMIVKAGFEGYNVQSDILILAGKVGMLTSREADTISLEDLKLHGTIEHDASLSREDVAIGDNLHFNEAIFTTLANSNPGADVYNISSAAQVQHDRLADSVARNPNVTNTDLTATIRSSESAFYLTVMSAGDPLRGEAPKKFVNVFFQEERMPIKEGWKRSTTPINLPLLGPIIDRITELSDWKPTGDNCGAIVLGPGL | 220 ± 1 | 61.6 ± 0.85 | 285000 | 260 ± 80 | 22.5 ± 0.73 | 87600 | 30 ± 3 | 15.5 ± 0.68 | 534000
